# Changes are numbered by the printed parent chain.
# Assays:
# [1] = target: T1, MexR Gln55Pro Q55P (Pseudomonas aeruginosa clinical isolate Pae d14 Green) (UniProt P52003); assay: EMSA
# T1 sequence: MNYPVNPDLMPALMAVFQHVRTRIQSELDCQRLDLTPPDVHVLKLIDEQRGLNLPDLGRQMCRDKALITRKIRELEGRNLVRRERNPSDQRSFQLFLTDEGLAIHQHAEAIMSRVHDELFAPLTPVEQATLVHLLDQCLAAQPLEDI
# [2] = target: T2, MexR wild-type (Pseudomonas aeruginosa clinical isolate Pae d1 Green) (UniProt P52003); assay: EMSA
# T2 sequence: T1 sequence with P55Q
sequence,measurement,setting,value
GTTGCATAGCGTTGTCCTCATGAGCGAAAGCGGCCGATGCAGCGTGAAGGCGCTGCACCGGCTCGAAGAAGGCAGGCAAAATACTTACATTCATAGGTGTTTGTAAACGTCCGAAAGCCTCGCGTGAAAACACCTGAAACGTTTTAGCTCGATGGCCGGTTATCCACCCGGCGCCATGGCCCATATTCAGAACCTGAAACAAGGTTGATAAGGTCAACTAAAATAAGCAAAATAGTTGACTGGATCAACCACATTTACATTAGGTTTACTCGGCCAAACCAATGAACTACC (double strand) [mexR-mexAB intergenic region 291 bp],binding,[1],no binding
same,binding,[2],binds

# Source: article PMC11705820
